How the values were obtained:
YjhH = experiment: Transcriptomic analysis during DHB fermentation: aldolase gene expression; assay type: cell-based, Escherichia coli; conditions: in presence of significant amount of DHB
garL = experiment: as above; assay type: cell-based, Escherichia coli; conditions: in presence of significant amount of DHB
rhmA = experiment: as above; assay type: cell-based, Escherichia coli; conditions: in presence of significant amount of DHB
yfaU = experiment: as above; assay type: cell-based, Escherichia coli; conditions: in presence of significant amount of DHB
yagE = experiment: as above; assay type: cell-based, Escherichia coli; conditions: in presence of significant amount of DHB
[1] = target: T1, Escherichia coli pyruvate aldolase Eda (E.C. 4.1.2.14) (Escherichia coli, UniProt P0A955); experiment: Kinetic characterization of pyruvate aldolase on OHB (coupled LdhA/NADH assay, 340 nm); assay type: biochemical; conditions: Tris-HCl 50 mM pH 7.5, 5 mM MgCl2, 37° C., 0 to 13 mM OHB
T1 construct: coupled LdhA/NADH assay
T1 sequence (P0A955 1-213): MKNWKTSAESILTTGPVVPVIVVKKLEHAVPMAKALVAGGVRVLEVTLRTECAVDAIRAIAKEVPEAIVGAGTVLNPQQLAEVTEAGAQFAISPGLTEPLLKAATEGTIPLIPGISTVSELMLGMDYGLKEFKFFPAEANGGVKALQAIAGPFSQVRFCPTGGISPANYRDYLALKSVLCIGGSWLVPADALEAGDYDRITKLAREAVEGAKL

[2] = In vivo capacity to degrade OHB by deletion of genes encoding pyruvate aldolase; assay type: cell-based, Escherichia coli; conditions: E. coli, gene deletion strains incubated with DHB
Excerpt: We measured production of formate in strains that were deleted for one of these aldolase encoding gene.

[3] = variant obtained by in vivo evolution (Bouzon et al., 2017); cited from earlier work
[4] = substrate: O=C(O)C(=O)CCO; experiment: purified protein, by the assay type; assay type: biochemical, Escherichia coli; conditions: Tris-HCl 50 mM pH 7.5, 5 mM MgCl2, 37° C., 0 to 13 mM OHB

O=C(O)C(O)CCO (racemic) [DHB, 2,4-dihydroxybutyric acid]
Maximal Expression (YjhH): 3.33
Minimal Expression (YjhH): 1.25
Maximal Expression (garL): 1.32
Minimal Expression (garL): 1.06
Maximal Expression (rhmA): 1.14
Minimal Expression (rhmA): 0.98
Maximal Expression (yfaU): 1.09
Minimal Expression (yfaU): 0.9
Maximal Expression (yagE): 13.33
Minimal Expression (yagE): 1.82

O=C(O)C(=O)CCO [OHB, 2-oxo-4-hydroxybutyrate]
Km [1]: > 20000 µM

B1: YjhH: E. coli pyruvate aldolase, E.C. 4.1.2.28, natural substrate 2-keto-3-deoxy-D-arabinonate; His-tagged recombinant protein (protein, UniProt P39359 1-301, looked up)
Probable …: MKKFSGIIPPVSSTFHRDGTLDKKAMREVADFLINKGVDGLFYLGTGGEFSQMNTAQRMALAEEAVTIVDGRVPVLIGVGSPSTDEAVKLAQHAQAYGADGIVAINPYYWKVAPRNLDDYYQQIARSVTLPVILYNFPDLTGQDLTPETVTRLALQNENIVGIKDTIDSVGHLRTMINTVKSVRPSFSVFCGYDDHLLNTMLLGGDGAITASANFAPELSVGIYRAWREGDLATAATLNKKLLQLPAIYALETPFVSLIKYSMQCVGLPVETYCLPPILEASEEAKDKVHVLLTAQGILPV
modifications: His tag
notes: E. coli pyruvate aldolase, E.C; 4.1.2.28, natural substrate 2-keto-3-deoxy-D-arabinonate; His-tagged recombinant protein
function on OHB in vivo [2]: most efficient to degrade OHB in vivo

B2: YfaU: E. coli pyruvate aldolase, E.C. 4.1.2.53, natural substrate 2-keto-3-deoxy-L-rhamnonate (protein, UniProt P76469 1-267, looked up)
2-keto-3-deoxy-L-rhamnonate …: MNALLSNPFKERLRKGEVQIGLWLSSTTAYMAEIAATSGYDWLLIDGEHAPNTIQDLYHQLQAVAPYASQPVIRPVEGSKPLIKQVLDIGAQTLLIPMVDTAEQARQVVSATRYPPYGERGVGASVARAARWGRIENYMAQVNDSLCLLVQVESKTALDNLDEILDVEGIDGVFIGPADLSASLGYPDNAGHPEVQRIIETSIRRIRAAGKAAGFLAVAPDMAQQCLAWGANFVAVGVDTMLYSDALDQRLAMFKSGKNGPRIKGSY
function on OHB in vivo [2]: do not have any function on OHB in vivo

B3: AlaC^A142PY275D: variant of alanine-α-ketoglutarate transaminase from E coli Ec-AlaC, obtained by in vivo evolution (Bouzon et al., 2017) (protein, UniProt P77434 1-412, looked up, variant A142P Y275D)
Glutamate-pyruvate …: MADTRPERRFTRIDRLPPYVFNITAELKMAARRRGEDIIDFSMGNPDGATPPHIVEKLCTVAQRPDTHGYSTSRGIPRLRRAISRWYQDRYDVEIDPESEAIVTIGSKEGLAHLMLATLDHGDTVLVPNPSYPIHIYGAVIPGAQVRSVPLVEGVDFFNELERAIRESYPKPKMMILGFPSNPTAQCVELEFFEKVVALAKRYDVLVVHDLAYADIVYDGWKAPSIMQVPGARDVAVEFFTLSKSYNMAGWRIGFMVGNKTLVSALARIKSYHDDGTFTPLQVAAIAALEGDQQCVRDIAEQYKRRRDVLVKGLHEAGWMVEMPKASMYVWAKIPEPYAAMGSLEFAKKLLNEAKVCVSPGIGFGDYGDTHVRFALIENRDRIRQAIRGIKAMFRADGLLPASSKHIHENAE
higher catalytic activity on homoserine [3]: 100 fold

B4: Escherichia coli pyruvate aldolase YagE (E.C. 4.1.2.28) (Escherichia coli K-12) (protein)
chain: MPQSALFTGIIPPVSTIFTADGQLDKPGTAALIDDLIKAGVDGLFFLGSGGEFSQLGAEERKAIARFAIDHVDRRVPVLIGTGGTNARETIELSQHAQQAGADGIVVINPYYWKVSEANLIRYFEQVADSVTLPVMLYNFPALTGQDLTPALVKTLADSRSNIIGIKDTIDSVAHLRSMIHTVKGAHPHFTVLCGYDDHLFNTLLLGGDGAISASGNFAPQVSVNLLKAWRDGDVAKAAGYHQTLLQIPQMYQLDTPFVNVIKEAIVLCGRPVSTHVLPPASPLDEPRKAQLKTLLQQLKLC
notes: coupled LdhA/NADH assay
Km ([4]; other: YagE): 350 µM
Vmax ([4]; other: YagE): 0.63 µmol/min/mg
kcat ([4]; other: YagE): 0.04 s⁻¹
kcat/Km ([4]; other: YagE): 115 M⁻¹ s⁻¹

B5: YagE: E. coli pyruvate aldolase, E.C. 4.1.2.28, natural substrate 2-keto-3-deoxy-D-arabinonate; His-tagged recombinant protein (protein, UniProt P75682 1-302, looked up)
Putative …: B4 chain
modifications: His tag
notes: as for B1
function on OHB in vivo [2]: most efficient to degrade OHB in vivo

B6: Escherichia coli pyruvate aldolase DgoA (E.C. 4.1.2.21) (Escherichia coli K-12) (protein)
chain: MQWQTKLPLIAILRGITPDEALAHVGAVIDAGFDAVEIPLNSPQWEQSIPAIVDAYGDKALIGAGTVLKPEQVDALARMGCQLIVTPNIHSEVIRRAVGYGMTVCPGCATATEAFTALEAGAQALKIFPSSAFGPQYIKALKAVLPSDIAVFAVGGVTPENLAQWIDAGCAGAGLGSDLYRAGQSVERTAQQAAAFVKAYREAVQ
notes: coupled LdhA/NADH assay
Km ([4]; other: DgoA): 2800 µM
Vmax ([4]; other: DgoA): 0.04 µmol/min/mg
kcat ([4]; other: DgoA): 0.012 s⁻¹
kcat/Km ([4]; other: DgoA): 4.7 M⁻¹ s⁻¹

B7: GarL: E. coli pyruvate aldolase, E.C. 4.1.2.20, natural substrate 5-dehydro-4-deoxy-D-glucarate (protein, UniProt P23522 1-256, looked up)
5-keto-4-deoxy-D-glucarate …: MNNDVFPNKFKAALAAKQVQIGCWSALSNPISTEVLGLAGFDWLVLDGEHAPNDISTFIPQLMALKGSASAPVVRVPTNEPVIIKRLLDIGFYNFLIPFVETKEEAELAVASTRYPPEGIRGVSVSHRANMFGTVADYFAQSNKNITILVQIESQQGVDNVDAIAATEGVDGIFVGPSDLAAALGHLGNASHPDVQKAIQHIFNRASAHGKPSGILAPVEADARRYLEWGATFVAVGSDLGVFRSATQKLADTFKK
function on OHB in vivo [2]: do not have any function on OHB in vivo

— patent publication US20260265789A1, “METHOD FOR IMPROVING 2, 4 DIHYDROXYBUTYRIC ACID PRODUCTION AND YIELD” (ADISSEO FRANCE S.A.S, priority 2023, published 2026)
